Measurements as given in paper PMC8457831, “Structural basis for diguanylate cyclase activation by its binding partner in Pseudomonas aeruginosa” (eLife, 2021).

Legend:
SiaD [1] = biological target: T1, SiaD (Pseudomonas aeruginosa, UniProt A0A069QEY1); test: ITC (also HPLC assay of c-di-GMP production from GTP); format: binding; parameters: gene pleD_6; SiaD alone, full length
SiaD [2] = biological target: T1, SiaD; test: X-ray crystal structure of SiaC–SiaD–GpCpp complex, […] Å; format: binding; parameters: gene pleD_6; full-length SiaD (redefined start at the upstream ATG codon); with SiaC (2:4 SiaD–SiaC complex)
SiaD [3] = biological target: T1, SiaD; test: HPLC DGC activity assay with […] c-di-GMP; thermal shift (+[…] ℃ at […]); SEC; inhibition abolished by R201A; format: biochemical; parameters: gene pleD_6; full-length SiaD, alone and in the SiaC–SiaD complex
[4] = biological target: SiaD (full length, sumo-His tag removed) (Pseudomonas aeruginosa); test: SEC-MALS; single proteins: SiaC at 1.5 mg/ml, SiaD at 8 mg/ml, WTC-030S5 column, 20 mM HEPES pH 7.0, 150 mM NaCl, DTT
[5] = biological target: SiaD (full length, sumo-His tag removed) (Pseudomonas aeruginosa); test: crystal structure; SiaC-SiaD complex (10 mg/ml) with GpCpp 1:5, sitting drops at 18°C, space group C222(1), 2.65 Å
[6] = biological target: SiaD (full length, sumo-His tag removed) (Pseudomonas aeruginosa); test: SAXS; synchrotron solution SAXS (SEC-SAXS for SiaD), 20 mM HEPES pH 8.0, 150 mM NaCl, 1 mM DTT, 25°C; 8 mg/ml SiaD or 11 mg/ml SiaC-SiaD complex
[7] = biological target: SiaD (full length, sumo-His tag removed) (Pseudomonas aeruginosa); test: SEC-MALS; SiaC-SiaD complexes (wild type and SiaD motif mutants) at 2 mg/ml, WTC-030S5 column, 20 mM HEPES pH 7.0, 150 mM NaCl, DTT
[8] = biological target: SiaD (full length, sumo-His tag removed) (Pseudomonas aeruginosa); test: native gel or EMSA; blue native PAGE, 8% gel, SiaD (25 ug) alone or mixed with excess SiaC (35 ug), 50 min at 15 mA, Coomassie stain
[9] = biological target: SiaD (full length, sumo-His tag removed) (Pseudomonas aeruginosa); test: SEC-MALS; SiaD alone at 4 mg/ml, WTC-030S5 column, 20 mM HEPES pH 7.0, 150 mM NaCl, 1 mM DTT
[10] = biological target: SiaD^S50A-Q54A (Pseudomonas aeruginosa); test: SEC-MALS; SiaC-SiaD complexes (wild type and SiaD motif mutants) at 2 mg/ml, WTC-030S5 column, 20 mM HEPES pH 7.0, 150 mM NaCl, DTT
[11] = biological target: SiaD^S82A-Q86A (Pseudomonas aeruginosa); test: as above
[12] = biological target: SiaD (full length, sumo-His tag removed) (Pseudomonas aeruginosa); test: ITC; SiaD in the cell, SiaC or SiaC mutant in the syringe, 25°C, MicroCal iTC200 or PEAQ-ITC
[13] = biological target: SiaD (full length, sumo-His tag removed) (Pseudomonas aeruginosa); test: SPR; Biacore T200, protein amine-coupled to a CM5 chip (about 5000 RU), 25°C; running buffer 10 mM Tris-HCl, 150 mM NaCl, 0.05% P-20, pH 7.5; SiaC or SiaC^M3 at varying concentrations over SiaD; fits to a 2:1 interaction

Nc1nc2c(ncn2[C@@H]2O[C@H](COP(=O)(O)OP(=O)(O)OP(=O)(O)O)[C@@H](O)[C@H]2O)c(=O)[nH]1 [GTP]
Kd (SiaD [1]): 12000 nM

Nc1nc2c(ncn2[C@@H]2O[C@H](COP(=O)(O)CP(=O)(O)OP(=O)(O)O)[C@@H](O)[C@H]2O)c(=O)[nH]1 [GpCpp]
X-ray crystal structure of SiaC-SiaD-GpCpp complex, 2.65 Å (SiaD [2]): a non-hydrolyzable GTP analog GpCpp molecule was observed to bind in the active site of SiaD-A

Nc1nc2c(ncn2[C@@H]2O[C@@H]3CO[P@](=O)(O)O[C@H]4[C@@H](O)[C@H](n5cnc6c(=O)[nH]c(N)nc65)O[C@@H]4CO[P@](=O)(O)O[C@H]3[C@H]2O)c(=O)[nH]1 [c-di-GMP]
HPLC DGC activity assay with 50 μM c-di-GMP; thermal shift (+7.1 °C at 25 μM); S (SiaD [3]): the enzyme activity of SiaD was inhibited by c-di-GMP more extensively than the SiaC–SiaD complex

SiaD (full length, sumo-His tag removed) (enzyme)
stoichiometry N [4]: 5 | stoichiometry N [5]: 2 | stoichiometry N [6]: 5 | stoichiometry N [7]: 2 | stoichiometry N [8]: 5 | stoichiometry N [9]: 5

B1: SiaC (sumo-His tag removed) (natural protein)
chain: MSDLHIPGTQSTPAIQGDWQAGRLSMQGDSYPENSYELFGQVIDWVERFLADGQRPLELDLRLLYLNTSSIKAMMDILDLLEEAHQGGRPVSLRWHYDRRNERVAELAEEFREDCSFPFAIQAHDE
stoichiometry N (SiaC per SiaD (2:4 SiaD:SiaC)) [10]: 2 | stoichiometry N (SiaC per SiaD (2:4 SiaD:SiaC)) [11]: 2 | Kd [12]: 49.8 nM

B2: SiaC-His (natural protein)
chain: MSDLHIPGTQSTPAIQGDWQAGRLSMQGDSYPENSYELFGQVIDWVERFLADGQRPLELDLRLLYLNTSSIKAMMDILDLLEEAHQGGRPVSLRWHYDRRNERVAELAEEFREDCSFPFAIQAHDE
Kd [13]: 11.8 nM
